Measurements published in patent publication US9051577 (GREENOVATION BIOTECH, dated 2015).

B1: IGN311, humanized monoclonal IgG anti-Lewis Y antibody (parental, expressed in SP 2.0 cells) (antibody, V domains shown)
VH: EVQLLESGGGLVQPGGSLRLSCAASGFTFSDYYMYWVRQAPEKRLEWVAYISNGGGSSHYVDSVKGRFTISRDNSKNTLYLQMNSLRAEDTALYHCARGMDYGAWFAYWGQGTLVTVSS
VL: DIVMTQSPLSLPVTPGEPASISCRSSQSIVHSNGNTYLEWYLQKPGQSPQLLISKVSNRFSGVPDRFSGSGSGTDFTLKISRVEAEDVGVYYCFQGSHVPFTFGQGTKLEIK
modifications: N-glycan at Asn297 almost completely core-fucosylated, with terminal galactosylation; C-terminal lysine of the heavy chain partly present (both SLSLSPG and SLSLSPGK detected)

Tests used:
Assay in all cases: cell-based or functional assay
[1] = target: CD16 (FcgammaRIIIa) 158F/F, low affinity phenotype, on effector cells (PBMC/NK) of a human donor (human) (UniProt P08637)
[2] = target: Fcgamma-RIII receptor (CD16) on human PBMC effector cells, 158 genotype of the donor not stated (human) (UniProt P08637)
[3] = target: CD16 (FcgammaRIIIa) 158V/V, high affinity phenotype, on effector cells (PBMC/NK) of a human donor (human) (UniProt P08637)
[4] = target: CD16 (FcgammaRIIIa) 158V/V, high affinity phenotype, on effector cells (PBMC/NK) of a human donor (human, UniProt P08637 17-254)
[5] = target: CD16 (FcgammaRIIIa) 158F/F, low affinity phenotype, on effector cells (PBMC/NK) of a human donor (human, UniProt P08637 17-254)
[6] = target: Fcgamma-RIII receptor (CD16) on human PBMC effector cells, 158 genotype of the donor not stated (human, UniProt P08637 17-254)
Sequence of Fcgamma-RIII receptor (CD16) on human PBMC effector cells, 158 genotype of the donor not stated (P08637 17-254): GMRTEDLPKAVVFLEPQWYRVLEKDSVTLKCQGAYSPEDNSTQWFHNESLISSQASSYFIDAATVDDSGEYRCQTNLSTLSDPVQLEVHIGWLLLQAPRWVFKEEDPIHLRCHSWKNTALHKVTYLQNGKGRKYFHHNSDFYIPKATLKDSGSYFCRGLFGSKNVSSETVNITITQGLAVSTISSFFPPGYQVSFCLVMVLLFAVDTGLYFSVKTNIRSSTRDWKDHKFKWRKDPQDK

Sequence of CD16 (FcgammaRIIIa) 158V/V, high affinity phenotype, on effector cells (PBMC/NK) of a human donor (P08637 17-254 F176V): as the sequence (P08637 17-254) above, with F160V counted along it
Sequence of CD16 (FcgammaRIIIa) 158V/V, high affinity phenotype, on effector cells (PBMC/NK) of a human donor (human) (P08637 17-254 F176V): as the sequence (P08637 17-254) above, with F160V counted along it
Sequence of CD16 (FcgammaRIIIa) 158F/F, low affinity phenotype, on effector cells (PBMC/NK) of a human donor (human) (P08637 17-254): as the sequence (P08637 17-254) above
Sequence of Fcgamma-RIII receptor (CD16) on human PBMC effector cells, 158 genotype of the donor not stated (human) (P08637 17-254): as above
Sequence of CD16 (FcgammaRIIIa) 158F/F, low affinity phenotype, on effector cells (PBMC/NK) of a human donor (P08637 17-254): as above

Molecule | EC50 of ADCC lysis (51Cr release), OVCAR-3 target cells, CD16158 F/F effector cells [1] | Enhancement (ADCC EC50 of IGN311 against IGN314), OVCAR-3, F/F effector cells [1] | EC50 of ADCC lysis of SK-BR-3 cells by human PBMC in 10% FCS [2] | EC50 of ADCC lysis of SK-BR-3 cells by human PBMC in 40% NHS [2] | EC50 of ADCC lysis (51Cr release), OVCAR-3 target cells, CD16158 V/V effector cells [3] | EC50 of ADCC lysis (51Cr release), SK-BR-3 target cells, CD16158 V/V effector cells [3] | EC50 of ADCC lysis (51Cr release), TF-1 target cells, CD16158 V/V effector cells [3] | Enhancement (ADCC EC50 of IGN311 against IGN314), OVCAR-3, V/V effector cells [3] | Enhancement (ADCC EC50 of IGN311 against IGN314), SK-BR-3, V/V effector cells [3] | Enhancement (ADCC EC50 of IGN311 against IGN314), TF-1, V/V effector cells [3] | EC50 of ADCC lysis (51Cr release), OVCAR-3 target cells, CD16158 V/V effector cells [4] | EC50 of ADCC lysis (51Cr release), SK-BR-3 target cells, CD16158 V/V effector cells [4] | EC50 of ADCC lysis (51Cr release), TF-1 target cells, CD16158 V/V effector cells [4] | EC50 of ADCC lysis (51Cr release), OVCAR-3 target cells, CD16158 F/F effector cells [5] | EC50 of ADCC lysis of SK-BR-3 cells by human PBMC in 10% FCS [6] | EC50 of ADCC lysis of SK-BR-3 cells by human PBMC in 40% NHS [6]
IGN314, glyco-engineered IGN311 variant expressed in delta-xyl-t/delta-fuc-t double knockout moss (Physcomitrella patens) (antibody) | 0.025 µg/mL | 40 fold | 0.052 µg/mL | 0.126 µg/mL | 8 ng/mL | 0.144 µg/mL | 0.366 µg/mL | 39 fold | 7 fold | 15 fold | – | – | – | – | – | –
B1 | – | – | – | – | – | – | – | – | – | – | 0.315 µg/mL | 1.04 µg/mL | 5.32 µg/mL | 0.993 µg/mL | 0.301 µg/mL | 1.56 µg/mL
